Target: His-tagged PTB domain of RABGAP1
Test: ITC

What does the source list for “WT APP tail peptide, starting from the MQQ sequence at position 677 (from UniProt P05067-4 677-695)”?
Kd: 61 µM; stoichiometry N: 1
